In paper PMC9167300, “The LCK-14-3-3ζ-TRPM8 axis regulates TRPM8 function/assembly and promotes pancreatic cancer malignancy” (Cell Death & Disease, 2022):

Molecular target: T1, His-LCK fusion (human, UniProt P06239 1-509)
T1 construct: human LCK cDNA subcloned into pET28a(+); also called His-fused LCK; source: E. coli BL21, purified (Ni-NTA agarose)
Experiment: pull-down; protein-protein interaction assay in vitro: 150 μg His-LCK eluted from Ni-NTA incubated with GST or GST-M8C bound to GST-agarose beads, 1 h at room temperature; Western blot
Settings: both partners purified

T1 sequence (P06239 whole entry, the tested form may be a part): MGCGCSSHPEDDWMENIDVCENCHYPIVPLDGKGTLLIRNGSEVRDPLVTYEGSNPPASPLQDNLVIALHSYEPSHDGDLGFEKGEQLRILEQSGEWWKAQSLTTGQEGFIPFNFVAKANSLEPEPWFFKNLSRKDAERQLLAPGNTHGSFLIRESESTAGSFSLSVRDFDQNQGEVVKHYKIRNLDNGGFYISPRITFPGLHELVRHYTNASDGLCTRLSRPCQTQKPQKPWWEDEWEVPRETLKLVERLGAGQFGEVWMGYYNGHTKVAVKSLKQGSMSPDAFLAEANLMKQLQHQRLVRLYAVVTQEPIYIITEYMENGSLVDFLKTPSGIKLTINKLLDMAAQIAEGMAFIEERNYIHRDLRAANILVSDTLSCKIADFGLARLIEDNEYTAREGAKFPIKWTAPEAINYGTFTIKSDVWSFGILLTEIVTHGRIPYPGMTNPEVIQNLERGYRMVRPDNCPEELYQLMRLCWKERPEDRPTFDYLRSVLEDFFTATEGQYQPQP

B1: GST-tagged C-terminus of TRPM8 (GST-M8C) (domain or fragment, rat, UniProt Q8R455 980-1104, looked up)
chain: GYTVGIVQENNDQVWKFQRYFLVQEYCNRLNIPFPFVVFAYFYMVVKKCFKCCCKEKNTESSACCFRNEDNETLAWEGVMKENYLVKINTKANDNAEEMRHRFRQLDTKLNDLKGLLKEIANKIK
notes: C-terminus of rat TRPM8 (M8C), amino acids 980-1104, in pGEX-4T-1; source: E. coli BL21, purified (glutathione beads)
B1: binds.
